According to patent publication US20120135912A1 (PERSEID THERAPEUTICS, published 2012):

Key:
[1] = target: T1, human VLA4-Fc (alpha4-Fc/beta1-Fc heterodimer) (human); experiment: SPR (BIACORE), retest with new polypeptide preparations and new VLA4-Fc; retested with new polypeptide preparations and new VLA-Fc ligand (Table 5B)
T1 construct: Soluble heterodimer from CHO cells, Protein A purified; also called VLA-Fc
Protocol: (§1) The kinetic 2D-VCAM-1 assay measures binding kinetics of a dimeric ligand (e.g., VLA-Fc fusion protein or LPAM-1-Fc fusion protein) coated to sensor chips and monomeric analyte (e.g., 2D-VCAM-1 variant polypeptides) in the mobile phase. Goat anti-human IgG antibody (Jackson ImmunoResearch, Catalog No. 105-005-098) was immobilized on CM-5 sensor chips (GE Healthcare, Catalog No. BR-1000-14) according to the manufacturer's protocol. Antibody was diluted to 30 μg/ml in immobilization buffer (10 mM sodium acetate, pH 5.0 (GE Healthcare, Catalog No. BR-1003-51)). […] Un-reacted sites were quenched with 35 μl of 1 M ethanolamine-HCl pH 8.5 (GE Healthcare, Catalog No. BR-1000-50). This procedure typically yielded 15,000 response units (RU) of coupled antibody. VLA4-Fc or LPAM-1-Fc, prepared as described in Examples 3 and 4, respectively, were bound to antibody-coated sensor chips by injection of 20 μl of ligand solution (20 μg/ml protein in HBS-P-Mn buffer at a flow rate of 10 μl/min). Ligand capture levels were typically 200-300 RU. […] Typically, 8 dilutions of 2D-VCAM-1 variant polypeptides ranging from 150 nM to 0.069 nM were analyzed against a blank reference (HBS-P-Mn buffer alone).

[2] = target: T1, human VLA4-Fc (alpha4-Fc/beta1-Fc …); experiment: ELISA, VLA4-Fc coated, 1 mM MnCl2; from EC50 values; ELISA, VLA4-Fc coated on plate, 1 mM MnCl2 (activated VLA4); fold relative to human 2D-VCAM-1
Protocol: The relative binding affinities of various 2D-VCAM-1 variants to immobilized VLA4-Fc (α4-β1-Fc) heterodimer, relative to a control protein (e.g., Q38L-2D-VCAM-1 or to human 2D-VCAM-1), were deter using a solid-phase ELISA assay. […] The dilution series was transferred into the ELISA plate which was incubated at room temperature for 2 h and subsequently washed with TBS-T. Bound 2D-VCAM protein was detected by incubation with 0.5 ug/ml of biotinylated anti-human VCAM antibody (R&D Systems, Catalog No. BAF809) in TBS-TMC for 1 h at room temperature followed by a TBS-MT (TBS plus 1 mM MnCl2 and 0.02% TWEEN-20) wash and subsequent incubation with 1:2000 dilution of streptavidin-HRP (BD Biosciences, Catalog No. 554066) in TBS-TMC for 30 min at room temperature. […] Fold-improvement in binding was calculated relative to a control protein (e.g., Q38L-2D-VCAM-1 or human 2D-VCAM-1) assayed on the same plate.

[3] = target: T1, human VLA4-Fc (alpha4-Fc/beta1-Fc …); experiment: SPR (BIACORE), VLA4-Fc captured by anti-human IgG, 1 mM MnCl2, 1:1 Langmuir; standard BIACORE assay, first preparation (Table 5A); KD ratio relative to human 2D-VCAM-1
Protocol: as §1

T1 sequence (chain, as listed by the source limits assumed, form in doubt, chain 1 of 2): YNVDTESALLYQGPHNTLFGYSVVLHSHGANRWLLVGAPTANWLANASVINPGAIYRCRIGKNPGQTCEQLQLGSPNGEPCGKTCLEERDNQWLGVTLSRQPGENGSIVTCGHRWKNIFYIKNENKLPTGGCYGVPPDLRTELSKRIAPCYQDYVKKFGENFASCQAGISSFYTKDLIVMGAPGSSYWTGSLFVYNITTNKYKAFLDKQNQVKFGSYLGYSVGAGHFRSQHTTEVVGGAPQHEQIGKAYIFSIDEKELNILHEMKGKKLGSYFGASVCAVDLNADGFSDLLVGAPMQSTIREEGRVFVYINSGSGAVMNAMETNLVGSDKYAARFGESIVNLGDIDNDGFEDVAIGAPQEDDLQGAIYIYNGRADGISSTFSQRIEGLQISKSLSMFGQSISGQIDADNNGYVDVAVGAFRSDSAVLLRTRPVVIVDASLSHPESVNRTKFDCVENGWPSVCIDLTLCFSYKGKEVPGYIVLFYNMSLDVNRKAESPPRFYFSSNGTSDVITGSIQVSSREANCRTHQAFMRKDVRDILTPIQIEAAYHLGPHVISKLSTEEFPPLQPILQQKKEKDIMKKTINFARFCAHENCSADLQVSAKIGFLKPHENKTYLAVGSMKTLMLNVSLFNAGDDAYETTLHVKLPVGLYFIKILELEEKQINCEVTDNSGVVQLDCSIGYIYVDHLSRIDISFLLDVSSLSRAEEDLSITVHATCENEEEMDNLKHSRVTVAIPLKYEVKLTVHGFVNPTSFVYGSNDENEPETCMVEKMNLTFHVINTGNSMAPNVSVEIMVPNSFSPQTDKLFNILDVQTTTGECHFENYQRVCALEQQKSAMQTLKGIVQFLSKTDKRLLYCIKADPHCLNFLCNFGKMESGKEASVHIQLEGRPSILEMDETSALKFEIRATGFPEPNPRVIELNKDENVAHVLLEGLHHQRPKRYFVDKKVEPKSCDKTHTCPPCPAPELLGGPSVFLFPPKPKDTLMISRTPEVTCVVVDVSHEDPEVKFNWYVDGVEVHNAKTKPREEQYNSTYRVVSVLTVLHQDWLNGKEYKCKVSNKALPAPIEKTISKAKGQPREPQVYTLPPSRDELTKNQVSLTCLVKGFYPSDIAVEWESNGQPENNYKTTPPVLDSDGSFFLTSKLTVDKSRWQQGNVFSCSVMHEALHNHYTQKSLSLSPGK
T1 sequence (chain, as listed by the source limits assumed, form in doubt, chain 2 of 2): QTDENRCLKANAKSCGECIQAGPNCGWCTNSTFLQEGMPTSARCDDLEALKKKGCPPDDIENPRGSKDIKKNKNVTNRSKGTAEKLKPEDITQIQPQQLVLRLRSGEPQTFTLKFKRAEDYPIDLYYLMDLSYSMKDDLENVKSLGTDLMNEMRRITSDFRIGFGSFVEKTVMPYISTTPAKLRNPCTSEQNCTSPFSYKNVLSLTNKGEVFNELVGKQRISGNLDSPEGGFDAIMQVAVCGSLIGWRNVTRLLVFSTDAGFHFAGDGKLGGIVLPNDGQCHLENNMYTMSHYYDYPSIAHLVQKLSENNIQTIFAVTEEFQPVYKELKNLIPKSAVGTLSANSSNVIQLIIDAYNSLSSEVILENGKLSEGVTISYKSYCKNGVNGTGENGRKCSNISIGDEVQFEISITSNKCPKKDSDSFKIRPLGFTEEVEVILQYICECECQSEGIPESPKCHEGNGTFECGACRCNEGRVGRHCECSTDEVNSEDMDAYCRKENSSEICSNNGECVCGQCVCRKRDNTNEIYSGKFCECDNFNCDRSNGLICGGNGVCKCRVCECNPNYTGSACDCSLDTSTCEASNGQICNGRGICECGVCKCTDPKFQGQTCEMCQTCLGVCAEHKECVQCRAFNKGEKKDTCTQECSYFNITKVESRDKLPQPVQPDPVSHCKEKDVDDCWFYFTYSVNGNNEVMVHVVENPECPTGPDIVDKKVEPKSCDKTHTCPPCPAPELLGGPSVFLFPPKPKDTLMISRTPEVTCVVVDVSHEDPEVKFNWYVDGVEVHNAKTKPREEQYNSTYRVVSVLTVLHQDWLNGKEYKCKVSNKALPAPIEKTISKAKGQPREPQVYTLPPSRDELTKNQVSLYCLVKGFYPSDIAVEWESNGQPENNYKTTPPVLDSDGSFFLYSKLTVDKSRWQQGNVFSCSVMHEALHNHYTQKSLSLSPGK

B1: 2D-VCAM-1 variant Clone 146 (ligand, not shown: small tags and cut ends)
chain: FKIETTPESRYLAQIGDSVSLTCSTTGCESPLFFWRPLLDSPLNGKVTNEGTTSTLTMNPVSFGNEHSYLCTARCESRSLEKGIQVEIYSFPKDPEIHLSGPLEAGKPITVKCSVADVYPFDRLEIDLLKGDHLMKSQEFLEDADRKSLETKSLEVTFTPVIEDIGKVLVCRAKLHIDEMDSVPTVRQAVKELQVYISP
[1]
  Kd: 18 pM
[2]
  fold-improvement in binding relative to human 2D-VCAM-1: 298 fold
[3]
  binding affinity for VLA4-Fc relative to human 2D-VCAM-1: 306 fold
